Source: patent publication US20160068613A1

Biological target: human neonatal Fc-receptor (FcRn) (human) (UniProt P55899)
Assay: FcRn affinity chromatography

retention time on FcRn affinity column [min]	retention time [min]	FcRn-affinity column retention time [min]	Substance
46.3	–	–	bispecific anti-VEGF/ANG2 antibody (knobs-into-holes), one chain with L251D/L314D/L432D (bispecific antibody)
–	46	–	anti-HER2 antibody, symmetrically modified, T256H
–	46.2	–	anti-HER2 antibody, symmetrically modified, D98E
–	41.4	–	anti-HER2 antibody, symmetrically modified, R255D
–	46.3	–	anti-HER2 antibody, wild-type
46.7	–	–	bispecific anti-VEGF/ANG2 antibody (knobs-into-holes), one chain with H310A/H433A/Y436A (bispecific antibody)
51.8	–	–	bispecific anti-VEGF/ANG2 antibody (knobs-into-holes), no FcRn affecting mutation (bispecific antibody)
48.8	–	–	bispecific anti-VEGF/ANG2 antibody (knobs-into-holes), one chain with H435A (bispecific antibody)
48.4	–	–	bispecific anti-VEGF/ANG2 antibody (knobs-into-holes), one chain with H310A (bispecific antibody)
–	46.2	–	anti-HER2 antibody, symmetrically modified, K290H
48.8	–	–	bispecific anti-VEGF/ANG2 antibody (knobs-into-holes), one chain with I253A (bispecific antibody)
–	45.5	–	anti-HER2 antibody, symmetrically modified, L309H
56.2	–	–	bispecific anti-VEGF/ANG2 antibody (knobs-into-holes), one chain with M252Y/S254T/T256E (bispecific antibody)
–	45.2	–	anti-HER2 antibody, symmetrically modified, K288E
–	46.3	–	anti-HER2 antibody, symmetrically modified, Q311H
–	46.3	–	anti-HER2 antibody, symmetrically modified, K317H
–	52	–	anti-HER2 antibody, symmetrically modified, N434H
–	45.6	–	anti-HER2 antibody, symmetrically modified, E258H
–	46.4	–	anti-HER2 antibody, symmetrically modified, E430H
–	–	41.3	IgG1 Fc-region, symmetric, L234A/L235A/P329G + Y436A
